Experiments:
[1] = target: T1, Pyk2 FERM I308E variant (UniProt Q14289 39-366); assay: capture sandwich ELISA with hybridoma supernatant
T1 construct: domain: FERM domain; Printed once as '1308E' (a misprint of I308E); also called Pyk2 FERM variant 1308E

[2] = target: T2, HA-epitope tagged wild type FAK (UniProt Q05397 2-1052, limits assumed); assay: Western blot of lysates of transfected SF767 cells
T2 construct: mature; also called full length FAK; tyrosine kinase FAK

[3] = target: T3, 3x HA-tagged FAK FERM domain (FAK residues R35-P362) (UniProt Q05397 35-362); assay: Western blot of lysates of transfected SF767 cells
T3 construct: range 35-362
T3 sequence (looked up): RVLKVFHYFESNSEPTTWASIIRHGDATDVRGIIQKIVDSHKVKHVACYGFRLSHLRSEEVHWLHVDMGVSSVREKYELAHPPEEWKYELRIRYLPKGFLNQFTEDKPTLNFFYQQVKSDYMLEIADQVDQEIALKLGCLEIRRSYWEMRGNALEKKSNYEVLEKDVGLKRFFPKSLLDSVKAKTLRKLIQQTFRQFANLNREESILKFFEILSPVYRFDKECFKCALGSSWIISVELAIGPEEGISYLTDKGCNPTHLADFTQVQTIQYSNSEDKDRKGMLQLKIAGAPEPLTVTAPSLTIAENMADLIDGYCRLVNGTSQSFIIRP

[4] = target: T4, Pyk2 FERM (FAKF3) (UniProt Q14289 39-260; Q05397 254-362); assay: Western blot of lysates of transfected SF767 cells
T4 construct: range 39-260;range 254-362; A chimera made by splice overlap extension PCR; The range 39-260 of Pyk2 is derived from the printed limits of the FERM domain (R39-A366) and the F3 module (D261-A366); also called Pyk2 FERM domain containing the FAK FERM F3 domain

[5] = target: T5, FLAG tagged Pyk2 I308E (UniProt Q14289 1-1009, limits assumed); assay: anti-FLAG immunoprecipitation and 12A10 immunoblot
T5 construct: mature; also called Pyk2 with substitution of I308
T5 sequence (Q14289 whole entry I308E): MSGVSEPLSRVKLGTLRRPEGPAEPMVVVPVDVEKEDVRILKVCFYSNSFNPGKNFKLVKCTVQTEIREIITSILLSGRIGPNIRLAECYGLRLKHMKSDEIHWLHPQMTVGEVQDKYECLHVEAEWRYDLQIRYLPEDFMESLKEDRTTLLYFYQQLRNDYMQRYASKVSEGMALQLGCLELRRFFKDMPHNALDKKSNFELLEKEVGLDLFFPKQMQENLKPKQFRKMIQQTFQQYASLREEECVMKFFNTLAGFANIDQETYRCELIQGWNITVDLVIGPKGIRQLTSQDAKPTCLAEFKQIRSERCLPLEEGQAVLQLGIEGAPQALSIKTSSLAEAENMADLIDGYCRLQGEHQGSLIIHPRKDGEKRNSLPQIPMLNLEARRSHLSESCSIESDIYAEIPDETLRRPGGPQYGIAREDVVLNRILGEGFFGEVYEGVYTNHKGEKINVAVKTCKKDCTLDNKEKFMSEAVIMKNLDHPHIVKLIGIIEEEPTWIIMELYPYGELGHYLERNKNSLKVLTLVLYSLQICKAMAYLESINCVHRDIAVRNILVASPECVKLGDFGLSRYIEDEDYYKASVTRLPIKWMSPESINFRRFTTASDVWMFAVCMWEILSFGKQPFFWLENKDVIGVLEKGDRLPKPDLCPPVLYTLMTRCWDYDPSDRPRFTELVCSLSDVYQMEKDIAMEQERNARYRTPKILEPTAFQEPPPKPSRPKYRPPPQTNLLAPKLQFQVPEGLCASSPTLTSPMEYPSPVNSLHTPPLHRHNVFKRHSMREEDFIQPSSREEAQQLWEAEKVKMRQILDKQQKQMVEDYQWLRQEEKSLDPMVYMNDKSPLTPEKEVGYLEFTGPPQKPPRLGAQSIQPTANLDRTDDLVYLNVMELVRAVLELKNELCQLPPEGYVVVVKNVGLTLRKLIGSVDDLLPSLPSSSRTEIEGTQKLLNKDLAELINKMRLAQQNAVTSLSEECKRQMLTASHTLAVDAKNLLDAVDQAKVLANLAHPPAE
From the text: (§1) FIG. 2 (bottom panel) depicts a Western blot using anti-Pyk2 12A10 monoclonal antibody. SF767 cells were transfected with FLAG epitope tagged wild type (WT) Pyk2 or Pyk2 with the indicated amino acid substitution. Cells were lysed, Pyk2 was immunoprecipitated with anti-FLAG mAb, and immunoprecipitates immunoblotted with anti FLAG, anti-phosphotyrosine mAb pY20 or mAb 12A10. FIG. 2 (top) is a three dimensional model of the Pyk2 FERM with the locations of interacting residues, indicated by Arial font and non-interacting surfaces indicated by Times Roman font.
(§2) Immunoprecipitation of cleared lysates was performed as described elsewhere (Lipinski et al., Biochem. Biophys. Res. Commun., 349:939-947 (2006)). For immunoblotting, equal amounts of protein (10-20 μg) were electrophoresed on 8-16% gradient SDS-PAGE gels (Invitrogen, Carlsbad, Calif.) and transferred to nitrocellulose. Immunoblotting of transferred proteins was performed with the appropriate primary antibodies for 1 hour at room temperature and was visualized by enhanced chemiluminescence (Perkin Elmer Life Sciences, Boston, Mass.).

[6] = target: T6, FLAG tagged Pyk2 R306E (UniProt Q14289 1-1009, limits assumed); assay: anti-FLAG immunoprecipitation and 12A10 immunoblot
T6 construct: mature; also called Pyk2 with substitution of R306
T6 sequence (Q14289 whole entry R306E): as the sequence (Q14289 whole entry I308E) above, with R306E, E308I counted along it
From the text: as §1, §2

[7] = target: T7, FLAG tagged Pyk2 D346A (UniProt Q14289 1-1009, limits assumed); assay: anti-FLAG immunoprecipitation and 12A10 immunoblot
T7 construct: mature; also called Pyk2 with substitution of D346
T7 sequence (Q14289 whole entry D346A): as the sequence (Q14289 whole entry I308E) above, with E308I, D346A counted along it
From the text: as §1, §2

[8] = target: T8, FLAG tagged Pyk2 W104A (UniProt Q14289 1-1009, limits assumed); assay: anti-FLAG immunoprecipitation and 12A10 immunoblot
T8 construct: mature; also called Pyk2 with substitution of W104
T8 sequence (Q14289 whole entry W104A): as the sequence (Q14289 whole entry I308E) above, with W104A, E308I counted along it
From the text: as §1, §2

[9] = target: T9, FLAG tagged Pyk2 Y135C (UniProt Q14289 1-1009, limits assumed); assay: anti-FLAG immunoprecipitation and 12A10 immunoblot
T9 construct: mature; also called Pyk2 with substitution of Y135
T9 sequence (Q14289 whole entry Y135C): as the sequence (Q14289 whole entry I308E) above, with Y135C, E308I counted along it
From the text: as §1, §2

T1 sequence (Q14289 39-366 I308E): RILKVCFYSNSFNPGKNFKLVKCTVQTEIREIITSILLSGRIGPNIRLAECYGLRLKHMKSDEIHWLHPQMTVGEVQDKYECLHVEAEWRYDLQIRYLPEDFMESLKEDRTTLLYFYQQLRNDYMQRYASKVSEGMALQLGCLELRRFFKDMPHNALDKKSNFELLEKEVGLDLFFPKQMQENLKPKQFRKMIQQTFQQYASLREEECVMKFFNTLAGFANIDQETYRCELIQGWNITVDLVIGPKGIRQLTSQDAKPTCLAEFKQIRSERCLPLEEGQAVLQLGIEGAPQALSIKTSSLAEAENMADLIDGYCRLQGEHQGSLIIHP
T2 sequence (Q05397 2-1052 limits assumed): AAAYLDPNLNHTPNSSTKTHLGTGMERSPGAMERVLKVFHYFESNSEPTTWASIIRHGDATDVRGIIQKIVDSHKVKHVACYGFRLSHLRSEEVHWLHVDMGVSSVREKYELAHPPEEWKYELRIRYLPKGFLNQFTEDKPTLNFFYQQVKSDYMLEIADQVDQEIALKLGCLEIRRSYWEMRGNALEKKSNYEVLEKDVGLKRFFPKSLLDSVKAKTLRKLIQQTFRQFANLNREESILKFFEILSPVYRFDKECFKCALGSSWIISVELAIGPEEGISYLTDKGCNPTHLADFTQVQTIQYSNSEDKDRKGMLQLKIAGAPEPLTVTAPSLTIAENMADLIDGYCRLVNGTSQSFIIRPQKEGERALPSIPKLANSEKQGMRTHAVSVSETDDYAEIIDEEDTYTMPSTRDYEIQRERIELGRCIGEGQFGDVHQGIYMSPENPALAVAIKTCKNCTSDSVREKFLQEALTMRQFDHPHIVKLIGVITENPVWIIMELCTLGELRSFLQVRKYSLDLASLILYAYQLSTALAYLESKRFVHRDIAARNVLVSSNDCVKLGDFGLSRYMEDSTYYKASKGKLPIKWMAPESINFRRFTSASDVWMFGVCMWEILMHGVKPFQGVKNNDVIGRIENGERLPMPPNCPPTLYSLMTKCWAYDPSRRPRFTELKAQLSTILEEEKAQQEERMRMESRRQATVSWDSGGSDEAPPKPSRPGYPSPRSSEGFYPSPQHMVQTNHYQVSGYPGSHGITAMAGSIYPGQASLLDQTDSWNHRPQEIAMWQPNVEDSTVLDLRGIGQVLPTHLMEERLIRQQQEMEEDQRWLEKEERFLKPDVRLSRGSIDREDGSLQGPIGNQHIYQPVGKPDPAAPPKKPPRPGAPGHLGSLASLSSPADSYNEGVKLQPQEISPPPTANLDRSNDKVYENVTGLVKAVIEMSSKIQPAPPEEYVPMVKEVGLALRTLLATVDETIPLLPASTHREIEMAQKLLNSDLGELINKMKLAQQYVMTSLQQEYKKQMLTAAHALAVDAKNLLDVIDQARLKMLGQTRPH

binding result [1]: no binding | binding result [2]: no binding | binding result [3]: no binding | binding result [4]: no binding | binding result [5]: no binding | binding result [6]: no binding | binding result [7]: binds | binding result [8]: binds | binding result [9]: binds
B1: mouse monoclonal antibody 12A10 (antibody, V domains shown)
VH: EVKLQESGPELKKPGETVKISCKASGYTFTDYSMHWVMQSPGKGLKWMGWINTETGEPRYVDDFKGRFAFSLETSASTAYLQIINLKNEDTATYFCARWDHGHGGFTYWGQGTLVTVSA
VL: DIVLTQTTASLAVSLGQRATMSCRATESVDSYGKSFMYWFQQRAGQPPKLLIYLASNLESVVPPRFSGSGSRTDFSLTIDPVEADDAATYYCQQNNEDPFTFGSGTKLEIK
notes: Mouse IgG1 from hybridoma 12A10, raised against the His-tagged Pyk2 F3 module (D261-A366); Used as hybridoma supernatant in the ELISA screen and as an antibody in the Western blots; also called mAb 12A10; anti-Pyk2 12A10 monoclonal antibody

— patent publication US20110136232A1 (MAYO FOUNDATION FOR MEDICAL EDUCATION AND RESEARCH, published 2011)
